Laboratory results: paper PMC4660199 (Nature Communications, 2015)
Values belong to the binder of their own block, whether it stands above or below them. Where no end group is shown, it is not given here.

Tests used:
Conditions in all cases: both partners purified
cpSRP43 CD2CD3 [1] = target: T1, cpSRP43 CD2CD3 (UniProt O22265 264-373, 15N,13C labelled where it is the observed partner in NMR); experiment: crystal structure; His6–Trx–CD2CD3–(GS)3–A3CT IV on one chain, 2.8 Å, two molecules in the asymmetric unit; 20% PEG 3350, 0.2 M Ca(OAc)2, 18 °C
T1 construct: cpSRP43 chromodomains 2 and 3, residues 264-373; His6-Trx is joined through a cleavable TEV site; In the crystal structure the same range stands inside the fusion m15; also called cpSRP43 CD2CD3 deletion construct; source: E. coli Rosetta2 pLysS, purified (as His6-Trx fusion with a cleavable TEV site; Superdex75)
T1 sequence (looked up): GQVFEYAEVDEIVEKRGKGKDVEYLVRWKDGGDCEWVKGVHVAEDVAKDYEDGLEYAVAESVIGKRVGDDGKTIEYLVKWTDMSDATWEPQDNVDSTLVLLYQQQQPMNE

cpSRP43 CD2CD3 [2] = target: T1, cpSRP43 CD2CD3; experiment: SAXS; CD2CD3 alone and with 7 × molar excess of A3CT IV, 298 K
[3] = target: T2, A3CT (Alb3 C-terminal tail) produced as His6-Trx fusion for NMR (UniProt Q8LBP4 363-462, 15N,13C labelled where it is the observed partner in NMR); experiment: NMR titration; 1H,15N HSQC chemical shift perturbations of the labelled partner on stepwise addition of the unlabelled ligand, 298 K, 20 mM Na-phosphate (pH 6.5), 150 mM NaCl
T2 construct: Alb3 insertase C-terminal tail; the A3CT constructs encode residues 363-462; this one is used for all NMR rows; also called Trx–A3CT
T2 sequence (looked up): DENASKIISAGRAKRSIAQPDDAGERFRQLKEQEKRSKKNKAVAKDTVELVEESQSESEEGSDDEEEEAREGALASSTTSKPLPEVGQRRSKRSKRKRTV

full-length cpSRP43 = target: T3, full-length cpSRP43 (UniProt O22265 57-373); experiment: ITC; VP-ITC, 20 °C, 20 mM Hepes (pH 7.5), 150 mM NaCl, 5 mM MgCl2, 0.25 mM TCEP; 0.01–0.1 mM in the cell, 0.1–1.0 mM in the syringe; duplicate or triplicate
T3 construct: cpSRP43, the 43-kDa subunit of the chloroplast signal recognition particle (CD1, Ank1-4, CD2, CD3); called full-length in the results; the chloroplast transit peptide may be absent from the recombinant protein (surmise); also called cpSRP43 wild-type; source: E. coli Rosetta (DE3) pLysS, purified (HisTrap, size-exclusion chromatography)

binding result (cpSRP43 CD2CD3 [1]): binds
B1: A3CT IV (residues 440–461) as joined to CD2CD3 in the fusion construct (peptide, UniProt Q8LBP4 440-461, looked up)
peptide: TTSKPLPEVGQRRSKRSKRKRT
notes: Alb3 C-terminal tail motif IV, residues 440-461; residues 453-461 are ordered in the structure, 454-KRSKRKR-460 is threaded into CD3; Stood on one chain with CD2CD3 through a (GS)3 linker; also called A3CT motif IV; motif IV; source: E. coli Rosetta2 (DE3) pLysS, purified as part of His6–Trx–CD2CD3–IV

Kd (full-length cpSRP43): 150 µM
B4: A3CT motif II peptide (peptide)
chain: IISAGRAKRSI
modifications: The exact ends of the peptide are not printed. 369-379 is the region the text gives as including motif II, so the assayed peptide may be longer. Terminal chemistry is not stated.

Second part, the binder before the results:

B2: A3CT IV peptide (peptide, UniProt Q8LBP4 434-461, looked up)
peptide: GALASSTTSKPLPEVGQRRSKRSKRKRT
modifications: also: 15N,13C labelled where it is the observed NMR partner
notes: Alb3 C-terminal 28 residues including motif IV, residues 434-461 (holds 454-KRSKRKR-460); The ITC methods also say that peptides were purchased from PSL; also called A3CT motif IV; motif IV; source: E. coli BL21, purified (His6-GST fusion, TEV cleavage, HisTrap, Superdex75); not shown: His6, N-terminal, cleaved; GST, N-terminal, cleaved
binding result (cpSRP43 CD2CD3 [2]): binds

B3: cpSRP43 CD3 (domain or fragment, UniProt O22265 316-373, looked up)
chain: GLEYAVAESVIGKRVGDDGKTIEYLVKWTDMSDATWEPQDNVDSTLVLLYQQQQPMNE
notes: Gly316 is the N-terminal residue in the CD3 constructs; also called CD3 only; cpSRP43 CD3 deletion construct; source: E. coli Rosetta2 pLysS, purified (as His6-Trx fusion with a cleavable TEV site; Superdex75); not shown: His6, N-terminal, cleaved; thioredoxin (Trx), N-terminal, cleaved
binding result [3]: binds
